B1: idInlBCC9, internalin domain (receptor-binding domain) of InlB, isoform of clonal complex CC9 (lineage II) (domain or fragment)
chain: AKVQAETITVPTPIKQIFSDDAFAETIKDNLKKKSVTDAVTQNELNSIDQIIANNSDIKSVQGIQYLPNVTKLFLNGNKLTDIKPLANLKNLGWLFLDENKVKDLSSLKDLKKLKSLSLEHNGISDINGLVHLPQLESLYLGNNKITDITVLSRLTKLDTLSLEDNQISDIVPLAGLTKLQNLYLSKNHISDLRALAGLKNLDVLELFSQECLNKPINHQSNLVVPNTVKNTDGSLVTPEIISDDGDYEKPNVKWHLPEFTNEVSFIFYQPVTIGKAKARFHGRVTQPLKE
modifications: stained with RED-tris-NTA (on the His tag)
notes: 321 aa long; also called idInlB-His-Tag; source: E. coli BL21, purified (HisTrap FF Crude column, dialysed against PBS)
B2: gC1qR (human) (receptor)
chain: LHTDGDKAFVDFLSDEIKEERKIQKHKTLPKMSGGWELELNGTEAKLVRKVAGEKITVTFNINNSIPPTFDGEEEPSQGQKVEEQEPELTSTPNFVVEVIKNDDGKKALVLDCHYPEDEVGQEDEAESDIFSIREVSFQSTGESEWKDTNYTLNTDSLDWALYDHLMDFLADRGVDNTFADELVELSTALEHQEYITFLEDLKSFVKSQ
notes: gC1qR (receptor of the globular heads of C1q), human; the catalogue number may tell them; also called human gC1qR; source: bought: Invitrogen (#11874H08E25)

Experiments:
Test in all cases: MST; idInlB-His-Tag stained with RED-tris-NTA kept constant at 50 nM; unlabeled receptor in twofold dilutions from 0.076 nM to 2.5 uM; PBST (PBS with 0.05% Tween-20); Monolith NT.115, LED power 80%, MST power 40%; fitted to a 1:1 binding model; mean of three independent experiments
[1] = biological target: idInlBCC1, internalin domain (receptor-binding domain) of InlB, isoform of clonal complex CC1 (lineage I) (Listeria monocytogenes)
[2] = biological target: idInlBCC7, internalin domain (receptor-binding domain) of InlB, isoform of clonal complex CC7 (lineage II) (Listeria monocytogenes)
[3] = biological target: T1, chimeric protein HGFR/Fc (c-Met extracellular domain as part of a soluble chimera protein) (human, UniProt P08581 25-932); settings: both partners purified
T1 construct: Hepatocyte growth factor receptor (c-Met, HGFR), human, extracellular domain; natural c-Met is cut into an alpha and a beta chain, written here as one chain; also called human c-Met; source: bought: Sigma-Aldrich (H0536)
T1 sequence (P08581 25-932, change not shown): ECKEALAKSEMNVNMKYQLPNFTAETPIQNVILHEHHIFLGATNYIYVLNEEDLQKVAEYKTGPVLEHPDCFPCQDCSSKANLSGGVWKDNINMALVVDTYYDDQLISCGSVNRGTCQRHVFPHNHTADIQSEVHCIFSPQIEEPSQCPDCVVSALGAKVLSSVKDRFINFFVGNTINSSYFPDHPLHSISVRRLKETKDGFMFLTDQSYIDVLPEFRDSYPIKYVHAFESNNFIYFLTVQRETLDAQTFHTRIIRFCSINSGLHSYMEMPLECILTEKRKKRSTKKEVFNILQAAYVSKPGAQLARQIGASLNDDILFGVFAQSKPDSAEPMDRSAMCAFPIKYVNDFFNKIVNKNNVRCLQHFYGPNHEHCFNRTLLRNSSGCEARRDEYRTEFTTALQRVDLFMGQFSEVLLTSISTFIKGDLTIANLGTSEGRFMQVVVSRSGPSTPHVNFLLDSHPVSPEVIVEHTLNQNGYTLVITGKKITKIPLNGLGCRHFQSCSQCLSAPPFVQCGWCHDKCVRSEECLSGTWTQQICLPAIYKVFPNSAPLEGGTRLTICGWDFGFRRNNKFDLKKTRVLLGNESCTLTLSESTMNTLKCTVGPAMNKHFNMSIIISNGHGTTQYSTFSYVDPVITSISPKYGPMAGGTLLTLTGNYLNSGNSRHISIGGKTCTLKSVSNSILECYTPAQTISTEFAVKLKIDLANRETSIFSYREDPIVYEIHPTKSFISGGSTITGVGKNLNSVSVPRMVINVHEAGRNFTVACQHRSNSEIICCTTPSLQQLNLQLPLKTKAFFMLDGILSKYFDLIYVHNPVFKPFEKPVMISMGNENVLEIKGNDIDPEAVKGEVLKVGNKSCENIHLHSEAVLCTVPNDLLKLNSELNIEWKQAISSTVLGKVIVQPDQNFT

[4] = biological target: B1; settings: both partners purified

| Molecule | Kd [1] [nM] | Kd [2] [nM] | Kd [3] [nM] | Kd [4] [nM] |
| --- | --- | --- | --- | --- |
| chimeric protein HGFR/Fc (c-Met extracellular domain as part of a soluble chimera protein) (from UniProt P08581 25-932) (Fc fusion) | 7.4 | 58.7 |  |  |
| gC1qR (human) (from UniProt Q07021 74-282) (receptor) | 7.4 | 10.2 |  |  |
| B1 |  |  | 93.6 |  |
| B2 |  |  |  | 21.5 |

Reference: publication PMC10139187, “Natural Isoforms of Listeria monocytogenes Virulence Factor Inlb Differ in c-Met Binding Efficiency and Differently Affect Uptake and Survival Listeria in Macrophage †” (International Journal of Molecular Sciences, 2023)
